Reference: FireProtDB (doi:10.1021/bi00021a022)

Details: Saccharomyces cerevisiae (strain ATCC 204508 / S288c), reversible: yes
[1] = pH 4.6, 27 °C, Thermal, DSC, Potassium acetate 50 mM, structure 1YCC
[2] = pH 4.6, Thermal, DSC, Potassium acetate 50 mM, structure 1YCC
[3] = pH 7, 22 °C, GdnHCl, Fluorescence, Potassium phosphate 0.1 M, structure 1YCC
[4] = pH 3.5, 27 °C, Thermal, DSC, Potassium acetate 50 mM, structure 1YCC
[5] = pH 3.5, Thermal, DSC, Potassium acetate 50 mM, structure 1YCC
[6] = pH 4, 27 °C, Thermal, DSC, Potassium acetate 50 mM, structure 1YCC
[7] = pH 5, 27 °C, Thermal, DSC, Potassium acetate 50 mM, structure 1YCC
[8] = pH 5, Thermal, DSC, Potassium acetate 50 mM, structure 1YCC
[9] = pH 4, Thermal, DSC, Potassium acetate 50 mM, structure 1YCC
[10] = pH 3.5, Thermal, DSC, Potassium acetate 50 mM
[11] = pH 4, Thermal, DSC, Potassium acetate 50 mM
[12] = pH 4.6, Thermal, DSC, Potassium acetate 50 mM
[13] = pH 5, Thermal, DSC, Potassium acetate 50 mM
[14] = pH 7, 22 °C, GdnHCl, Fluorescence, Potassium phosphate 0.1 M

Chain of Cytochrome c isoform 1 N58S, P00044 (P00044 whole entry N58S, canonical isoform): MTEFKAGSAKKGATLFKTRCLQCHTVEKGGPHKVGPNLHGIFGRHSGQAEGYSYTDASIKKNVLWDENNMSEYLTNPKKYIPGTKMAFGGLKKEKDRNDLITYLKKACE
Chain of Cytochrome c isoform 1 N58Q, P00044 (P00044 whole entry N58Q, canonical isoform): as the sequence (P00044 whole entry N58S, canonical isoform) above, with S58Q counted along it
Chain of Cytochrome c isoform 1 N58H, P00044 (P00044 whole entry N58H, canonical isoform): as the sequence (P00044 whole entry N58S, canonical isoform) above, with S58H counted along it
Chain of Cytochrome c isoform 1 N58I, P00044 (P00044 whole entry N58I, canonical isoform): as the sequence (P00044 whole entry N58S, canonical isoform) above, with S58I counted along it
Chain of Cytochrome c isoform 1 N58T, P00044 (P00044 whole entry N58T, canonical isoform): as the sequence (P00044 whole entry N58S, canonical isoform) above, with S58T counted along it
Chain of Cytochrome c isoform 1 N58A, P00044 (P00044 whole entry N58A, canonical isoform): as the sequence (P00044 whole entry N58S, canonical isoform) above, with S58A counted along it
Chain of Cytochrome c isoform 1 N58V, P00044 (P00044 whole entry N58V, canonical isoform): as the sequence (P00044 whole entry N58S, canonical isoform) above, with S58V counted along it
Chain of Cytochrome c isoform 1 N58M, P00044 (P00044 whole entry N58M, canonical isoform): as the sequence (P00044 whole entry N58S, canonical isoform) above, with S58M counted along it
Chain of Cytochrome c isoform 1 wild type, P00044 (P00044 whole entry, canonical isoform): as the sequence (P00044 whole entry N58S, canonical isoform) above, with S58N counted along it

Cytochrome c isoform 1 N58A, P00044
ddG of mutation (higher = less stable) [1]: -0.63 kcal/mol
unfolding free energy [1]: 4.66 kcal/mol
Tm [2]: 53.7 °C
change of melting temperature, mutant - wild type (higher = more stable) [2]: 4.5 °C
unfolding enthalpy (calorimetric) [2]: 84 kcal/mol
ddG of mutation (higher = less stable) [3]: -2.97 kcal/mol
denaturant midpoint (higher = more stable) [3]: 1.52 M
unfolding free energy [3]: 8.83 kcal/mol

Cytochrome c isoform 1 N58H, P00044
ddG of mutation (higher = less stable) [1]: 1.27 kcal/mol
unfolding free energy [1]: 2.76 kcal/mol
Tm [2]: 47.5 °C
change of melting temperature, mutant - wild type (higher = more stable) [2]: -1.7 °C
unfolding enthalpy (calorimetric) [2]: 64.1 kcal/mol
ddG of mutation (higher = less stable) [3]: 1.7 kcal/mol
denaturant midpoint (higher = more stable) [3]: 1.41 M
unfolding free energy [3]: 4.16 kcal/mol

Cytochrome c isoform 1 N58I, P00044
ddG of mutation (higher = less stable) [4]: -2.62 kcal/mol
unfolding free energy [4]: 4.26 kcal/mol
Tm [5]: 52.4 °C
change of melting temperature, mutant - wild type (higher = more stable) [5]: 12.3 °C
unfolding enthalpy (calorimetric) [5]: 80.7 kcal/mol
ddG of mutation (higher = less stable) [6]: -3.03 kcal/mol
unfolding free energy [6]: 5.55 kcal/mol
Tm [2]: 62.2 °C
change of melting temperature, mutant - wild type (higher = more stable) [2]: 13 °C
unfolding enthalpy (calorimetric) [2]: 101 kcal/mol
ddG of mutation (higher = less stable) [7]: -2.02 kcal/mol
unfolding free energy [7]: 7.64 kcal/mol
Tm [8]: 64.2 °C
change of melting temperature, mutant - wild type (higher = more stable) [8]: 0.9 °C
unfolding enthalpy (calorimetric) [8]: 108 kcal/mol
ddG of mutation (higher = less stable) [3]: -4.1 kcal/mol
denaturant midpoint (higher = more stable) [3]: 2.09 M
unfolding free energy [3]: 9.96 kcal/mol

Cytochrome c isoform 1 N58L, P00044
ddG of mutation (higher = less stable) [1]: -2.56 kcal/mol
unfolding free energy [1]: 6.59 kcal/mol
Tm [2]: 62.1 °C
change of melting temperature, mutant - wild type (higher = more stable) [2]: 12.9 °C
unfolding enthalpy (calorimetric) [2]: 97.4 kcal/mol
ddG of mutation (higher = less stable) [3]: -4.73 kcal/mol
denaturant midpoint (higher = more stable) [3]: 2.17 M
unfolding free energy [3]: 10.6 kcal/mol

Cytochrome c isoform 1 N58V, P00044
ddG of mutation (higher = less stable) [6]: -2.44 kcal/mol
unfolding free energy [6]: 4.96 kcal/mol
Tm [9]: 54.3 °C
change of melting temperature, mutant - wild type (higher = more stable) [9]: 8.9 °C
unfolding enthalpy (calorimetric) [9]: 86.5 kcal/mol
ddG of mutation (higher = less stable) [1]: -1.67 kcal/mol
unfolding free energy [1]: 5.7 kcal/mol
Tm [2]: 58 °C
change of melting temperature, mutant - wild type (higher = more stable) [2]: 8.8 °C
unfolding enthalpy (calorimetric) [2]: 92.4 kcal/mol
ddG of mutation (higher = less stable) [3]: -2.02 kcal/mol
denaturant midpoint (higher = more stable) [3]: 1.77 M
unfolding free energy [3]: 7.88 kcal/mol

Cytochrome c isoform 1 N58S, P00044
ddG of mutation (higher = less stable) [6]: -0.74 kcal/mol
unfolding free energy [6]: 3.26 kcal/mol
Tm [9]: 46.7 °C
change of melting temperature, mutant - wild type (higher = more stable) [9]: 1.3 °C
unfolding enthalpy (calorimetric) [9]: 70.8 kcal/mol
ddG of mutation (higher = less stable) [1]: 0.05 kcal/mol
unfolding free energy [1]: 3.98 kcal/mol
Tm [2]: 51 °C
change of melting temperature, mutant - wild type (higher = more stable) [2]: 1.8 °C
unfolding enthalpy (calorimetric) [2]: 78.7 kcal/mol
ddG of mutation (higher = less stable) [7]: 1.29 kcal/mol
unfolding free energy [7]: 4.33 kcal/mol
Tm [8]: 52.6 °C
change of melting temperature, mutant - wild type (higher = more stable) [8]: -10.7 °C
unfolding enthalpy (calorimetric) [8]: 83.2 kcal/mol

Cytochrome c isoform 1 N58Q, P00044
unfolding free energy [1]: 3.95 kcal/mol
Tm [2]: 51.2 °C
change of melting temperature, mutant - wild type (higher = more stable) [2]: 2 °C
unfolding enthalpy (calorimetric) [2]: 78.7 kcal/mol
denaturant midpoint (higher = more stable) [3]: 1.39 M
unfolding free energy [3]: 5.02 kcal/mol

Cytochrome c isoform 1 N58M, P00044
ddG of mutation (higher = less stable) [6]: -2.91 kcal/mol
unfolding free energy [6]: 5.43 kcal/mol
Tm [9]: 58.9 °C
change of melting temperature, mutant - wild type (higher = more stable) [9]: 13.5 °C
unfolding enthalpy (calorimetric) [9]: 89 kcal/mol
ddG of mutation (higher = less stable) [1]: -2.25 kcal/mol
unfolding free energy [1]: 6.28 kcal/mol
Tm [2]: 62.6 °C
change of melting temperature, mutant - wild type (higher = more stable) [2]: 13.4 °C
unfolding enthalpy (calorimetric) [2]: 96 kcal/mol
ddG of mutation (higher = less stable) [3]: -4.04 kcal/mol
denaturant midpoint (higher = more stable) [3]: 2.14 M
unfolding free energy [3]: 9.9 kcal/mol

Cytochrome c isoform 1 N58T, P00044
ddG of mutation (higher = less stable) [4]: -0.98 kcal/mol
unfolding free energy [4]: 2.62 kcal/mol
Tm [5]: 45.4 °C
change of melting temperature, mutant - wild type (higher = more stable) [5]: 5.3 °C
unfolding enthalpy (calorimetric) [5]: 63.4 kcal/mol
ddG of mutation (higher = less stable) [6]: -1.01 kcal/mol
unfolding free energy [6]: 3.53 kcal/mol
Tm [9]: 49.2 °C
change of melting temperature, mutant - wild type (higher = more stable) [9]: 3.8 °C
unfolding enthalpy (calorimetric) [9]: 75.3 kcal/mol
ddG of mutation (higher = less stable) [1]: -0.59 kcal/mol
unfolding free energy [1]: 4.62 kcal/mol
Tm [2]: 54.5 °C
change of melting temperature, mutant - wild type (higher = more stable) [2]: 5.3 °C
unfolding enthalpy (calorimetric) [2]: 82.9 kcal/mol
ddG of mutation (higher = less stable) [7]: 0.53 kcal/mol
unfolding free energy [7]: 5.09 kcal/mol
Tm [8]: 55.3 °C
change of melting temperature, mutant - wild type (higher = more stable) [8]: -8 °C
unfolding enthalpy (calorimetric) [8]: 88.6 kcal/mol
ddG of mutation (higher = less stable) [3]: -1.9 kcal/mol
denaturant midpoint (higher = more stable) [3]: 1.58 M
unfolding free energy [3]: 7.76 kcal/mol

Cytochrome c isoform 1 wild type, P00044
unfolding free energy (pH 3.5, 27 °C, Thermal, DSC, Potassium acetate 50 mM): 1.64 kcal/mol
Tm [10]: 40.1 °C
unfolding enthalpy (calorimetric) [10]: 55.3 kcal/mol
unfolding free energy (pH 4, 27 °C, Thermal, DSC, Potassium acetate 50 mM): 2.52 kcal/mol
Tm [11]: 45.4 °C
unfolding enthalpy (calorimetric) [11]: 64.2 kcal/mol
unfolding free energy (pH 4.6, 27 °C, Thermal, DSC, Potassium acetate 50 mM): 4.03 kcal/mol
Tm [12]: 49.2 °C
unfolding enthalpy (calorimetric) [12]: 78.8 kcal/mol
unfolding free energy (pH 5, 27 °C, Thermal, DSC, Potassium acetate 50 mM): 5.62 kcal/mol
Tm [13]: 63.3 °C
unfolding enthalpy (calorimetric) [13]: 107 kcal/mol
denaturant midpoint (higher = more stable) [14]: 1.34 M
unfolding free energy [14]: 5.86 kcal/mol
